Substrate: O=[P@]1(S)OC[C@H]2OC3[C@H](F)[C@@H]2O[P@](=O)(S)OC[C@H]2O[C@H]([C@H](F)[C@@H]2O1)n1cnc2c(ncnc21)NC/C=C/CNc1ncnc2c1ncn23
Experiment: Uptake in HEK293 cells overexpressing OATP1B1
Assay type: in vitro ADME, human
Conditions: other: Simcyp input parameter, Table 3; 37.0 °C
Description: TransportoCells™ (Corning, N.Y., USA) expressing OATP2B1, NTCP, and HEK293-FT cells stably transfected with the vector containing OATP1B1 cDNA or OATP1B3 cDNA or empty vector were grown in a Dulbecoo's modified Eagle's medium fortified with 10% fetal calf serum and 2 mmol/L sodium butyrate (for NTCP only) in a humidified incubator at 37° C. and 5% CO2. Cells were harvested at 90% confluence and then seeded in poly-D-lysine-coated 24-well 24 h prior to transporter assay. Cells were washed twice and pre-incubated with 200 μL of pre-warmed Krebs-Henseleit buffer. After pre-incubation, cells were incubated with 3 or 10 μmol L-1 of Compound 1 in presence or absence of 100 μmol L-1 of inhibitors (Rifamycin SV for OATP2B1, Troglitazone for NTCP, Rifamycin for OATP1B1 and OATP1B3). The transport reaction was terminated by aspirating the buffer from the wells at designated time. After washing three times with 200 μL of ice-cold Krebs-Henseleit buffer, the cells were lysed and the resulting cellular lysates were analyzed by LC-MS/MS.
Concentration-dependent uptake of Compound 1 via OATP1B1 and OATP1B3 were conducted with a concentration range of 0.25-100 μmol L-1 under linear uptake. All experiments were run in triplicates.

B1: OATP1B1 (Homo sapiens) (protein)
chain: MDQNQHLNKTAEAQPSENKKTRYCNGLKMFLAALSLSFIAKTLGAIIMKSSIIHIERRFEISSSLVGFIDGSFEIGNLLVIVFVSYFGSKLHRPKLIGIGCFIMGIGGVLTALPHFFMGYYRYSKETNINSSENSTSTLSTCLINQILSLNRASPEIVGKGCLKESGSYMWIYVFMGNMLRGIGETPIVPLGLSYIDDFAKEGHSSLYLGILNAIAMIGPIIGFTLGSLFSKMYVDIGYVDLSTIRITPTDSRWVGAWWLNFLVSGLFSIISSIPFFFLPQTPNKPQKERKASLSLHVLETNDEKDQTANLTNQGKNITKNVTGFFQSFKSILTNPLYVMFVLLTLLQVSSYIGAFTYVFKYVEQQYGQPSSKANILLGVITIPIFASGMFLGGYIIKKFKLNTVGIAKFSCFTAVMSLSFYLLYFFILCENKSVAGLTMTYDGNNPVTSHRDVPLSYCNSDCNCDESQWEPVCGNNGITYISPCLAGCKSSSGNKKPIVFYNCSCLEVTGLQNRNYSAHLGECPRDDACTRKFYFFVAIQVLNLFFSALGGTSHVMLIVKIVQPELKSLALGFHSMVIRALGGILAPIYFGALIDTTCIKWSTNNCGTRGSCRTYNSTSFSRVYLGLSSMLRVSSLVLYIILIYAMKKKYQEKDINASENGSVMDEANLESLNKNKHFVPSAGADSETHC
notes: expressed in transfected cells; host or cells: HEK293-FT
For B1, the Km was 2.200 µM.
